The values below come from PMC3777949, “Dimerization Mediates Thermo-Adaptation, Substrate Affinity and Transglycosylation in a Highly Thermostable Maltogenic Amylase of Geobacillus thermoleovorans” (PLoS ONE, 2013).

In general, stoichiometry N refers to the number of molecules, sites or subunits per partner or assembly.

The target of experiment [1] is Gt-Mamy D109A mutant (Geobacillus thermoleovorans).
Experiment [2] addresses maltogenic amylase of Geobacillus thermoleovorans (Gt-Mamy), recombinant wild type (Geobacillus thermoleovorans). In words: SEC; Sephacryl S-200 high resolution column, 100 mM sodium phosphate pH 7 with 50 mM NaCl, 0.3 ml/min; masses from a plot of molecular weight vs Ve/Vo against standards. A general note: SEC sorts molecules by how far they enter the pores of the column.

In experiment [1], Gt-Mamy D109A mutant (enzyme) displayed an Ea required for thermal denaturation of 33.8 kcal/mol; a T1/2 of thermal inactivation at 80, 90 and 100°C of 44.6 h.

On to “maltogenic amylase of Geobacillus thermoleovorans (Gt-Mamy), recombinant wild type (enzyme)”, for which the stoichiometry N in experiment [2] came to 2.
